Assay: soluble on expression in E. coli; label from the status in PepcDB or PDB records

Sequence	soluble on expression in E. coli
MGSDKIHHHHHHMLWRLKGVPFVGFDVARVRGLYTSLGDGWTYLNSHQIPQVPERVASGVAAAFRTHAQISEVTSQPIAVDQLEAAREAVASLAGVDPDCVVLGPTRQFLAHTLARGLGGFVRRKAGVVLSRADADWLTAPFRSLDGVFSWAEPDLGTGMLPDWQYEKLVDGSTRLVVLSAAHPLLGTVAPVGKIVDKVRARSRAWVLVDATTYAAYRPLRLDEWEADIVMLDLGELGGPQISALIFRDTSMFPRLDRTVPLELPASSLPHGLLGGVPNLVRHLGNLDENAPSVVEAMGEMAKFHKGLFEHLVESLEGLHAVHIVGISGDAAGQDAAFLDRVPRLTFTMEGVPADMVYRRLVDNRLITTVSPADPLLEAMGVTEAGGSITIGLSPFSTYYEVDQLTRVLASLA	not soluble
MSLKLIGMLDSPYVRRVAISLKSLGLPFEHHSLSVFSTFEQFKAINPVVKAPTLVCEGGEVLMDSSLIIDYLETLAGPQRSLMPTALPQRLRELRLVGLALAACEKSVQIVYERNLRPAEKQHGPWLERVGGQLQAAYGELEQELQKQPLPRDGSLGQAGISLAVAWSFSQMMVADQFNPGQFPAVRGFAEYAEQLPVFLATPATEGHHHHHH	soluble
YTIKEAERGVVTRFGKFSHLVEPGLNWKPTFIDEVKPVNVEAVRELAASGVMLTSDENVVRVEMNVQYRVTNPEKYLYSVTSPDDSLRQATDSALRGVIGKYTMDRILTEGRTVIRSDTQRELEETIRPYDMGITLLDVNFQAARPPEEVKAAFDDAIAARENEQQYIREAEAYSNEVQPRANGQAQRILEEARAYKAQTILEAQGEVARFAKLLPEYKAAPEITRERLYIETMEKVLGNTRKVLVNDKGGNLMVLPLDQMLKGGNAPAAKSDNGASNLLRLPPASSSTTSGASNTSSTSQGDIMDQRRANAQRNDYQRQGE	not soluble
MDYTNNQLHVIYGDASLGLEGPNFHYLFSYERGGLESLVVNQKEWLYRTPTPLFWRATTDNDHGNGFDVKAAQWYAADRFTTCQKIDLTVDGQLVQPLPIAPLNNRYTNHEMANQVALTYHFVTPTVPSTSVSITYTVASDGNIKIMTHFAGREGLPELPAFGLRFIMPTTATGFDYQGLSGETYPDRLAGATQGQFHVDGLPVTPYLVPQECGMHMQTSQLTVTRSTTQNNADQSKQPFSLTFSQADQPFAFSCLPYTAAELEQATHLEELPLPRRTVLSIYGAVRGVGGIDSWGADVEAKYHIPANQDLDFSFNIHFLEHHHHHH	not soluble
MSLTTRRDFIKKTVAGTAALSLGSIIPGFGSNSYQEILGANEKIRIGVIGVNSRGNALAQGFAKMKGCEVTYLCDVDSRALERCQADIHKISGRTPKGEKDIRKMLESDDFEAVVIATPDHWHGKAAIMAMQAGKHVYLEKPTSHNPAENEMLVRATLKYNRIVQVGNQRRSWPNVIKAIEEIKSGAIGKVRYAKSWYVNNRPSIGTGKVVPVPDYLDWDLWQGPAPRVPNFKDNYIHYNWHWFWNWGTGEALNNGTHFVDILRWGLGVDYPTKVDSVGGRYRFQDDWQTPDTQLITFQFGDEASCSWEGRSCNSTPVDGYGVGTAFYGETGTLFISGGNEYKITDLQGKVIKDVKSNLKFETGNLLNPSEKLDAYHFENWFDAIRKGGKLNSGIVDACISTQLVQLGNIAQRVGHSLDIDPGSGRILNDLEANKLWGREYEKGWEIREGHHHHHH	soluble
MASLAAVVRALLRRESQRATGYALREWTMLTARHLPYLQGQLTLGRIAAVGHLQRSTLGRSEWHTSSAPLFGEGRGRWHWGLSTSDVVDGSDHEHHSTETGGRELPSFKTGELGSDVDGDRAALEAWLAQIRDETSGWPELSLDALRDELDEELEGDDDDNDDDDDETYENEELLKALQEAVNRHRTPVVALVSGRVVHLRRTAAPKRSPRAGRVPRNEPQTTSRDTTKADANDNECT	soluble
MQDQVIICDLDNTIFDTSSIDPELFASLLHKATEYLSGSFTAEIILSIIQDIVSNPFDRVCEKYGLPKSMILPVLDELNGISLEHSAMVPYEDYAAFRAIPAYKILVTTGFKRLQEEKLRKLQIRQDFDRIIINDPVYANSSKLDIFRELSRELDLKDRKTYVVGDDPASEIKAGRELGFTTVLMVRKEYLSNSYTDYIISSFEGLRDLLRDNMENDYALRK	soluble
MKKILALLVIAPLLVSCSGNKNQVENEVFVKDTNGFEILMGQFAHNIENIWGLKEVLIAGPKDYVKYTDQYQTRSHINFDAGTITIETIATTNPAAHLRQAIITTLLMGDDPGSIDLYSDVNDIQISKEPFLYGQVLDNNGEPIRWEWRAAHFADYLLQNKMQTRTSGLHVISFVTIQLVPNHLDKRAHKYLPLVRKSAARYGVEESLILAIMQTESSFNPYAVSRSDALGLMQVVQHTAGKDVFKLKGKSGQPSRSYLFDPENNIDAGTAYLSILQNTYLGGIQNATSRRYAVITSYNGGAGSVLRVFHSDKNKAVGIINTMSPGDVFQTLTTKHPSGESRRYLVKVNSAQKNYRRY	not soluble
MELDGKAPSHRNLNVQTWSTAEGAKVLFVEARELPMFDLRLIFAAGSSQDGNAPGVALLTNAMLNEGVAGKDVGAIAQGFEGLGADFGNGAYKDMAVASLRSLSAVDKREPALKLFAEVVGKPTFPADSLARIKNQMLAGFEYQKQNPGKLASLELMKRLYGTHPYAHASDGDAKSIPPITLAQLKAFHAKAYAAGNVVIALVGDLSRSDAEAIAAQVSAALPKGPALAKIEQPAEPKASIGHIEFPSSQTSLMLAQLGIDRDDPDYAAVSLGNQILGGGGFGTRLMSEVREKRGLTYGVYSGFTPMQARGPFMINLQTRAEMSEGTLKLVQDVFAEYLKNGPTQKELDDAKRELAGSFPLSTASNADIVGQLGAMGFYNLPLSYLEDFMRQSQELTVEQVKAAMNKHLNVDKMVIVSAGPTVAQKPLEHHHHHH	soluble
MARFSIEGKSLKLDAITTEDEKSVFAVLLEDDSVKEIVLSGNTIGTEAARWLSENIASKKDLEIAEFSDIFTGRVKDEIPEALRLLLQALLKCPKLHTVRLSDNAFGPTAQEPLIDFLSKHTPLEHLYLHNNGLGPQAGAKIARALQELAVNKKAKNAPPLRSIICGRNRLENGSMKEWAKTFQSHRLLHTVKMVQNGIRPEGIEHLLLEGLAYCQELKVLDLQDNTFTHLGSSALAIALKSWPNLRELGLNDCLLSARGAAAVVDAFSKLENIGLQTLRLQYNEIELDAVRTLKTVIDEKMPDLLFLELNGNRFSEEDDVVDEIREVFSTRGRGELDELDDMEELTDEEEEDEEEEAESQSPEPETSEEEKEDKELADELSKAHI	soluble
MGSDKIHHHHHHMKFMKSLEPLNNHDETAAGDAMRGPSGGGNSASILNEAENILRDYYGGAIESLFIERLVVGVFFTGVKLSNGCGGVAYTPPETIRNASRRILRGSPSAIRGKSADVVISGKIPSPFADVIRLAAINALSVPFFQDGRYDFEKSDDLSDVSHLFTGRRVCMVGAIVPLLKRFKKMGVSEIKVIDRKKDSQIEVELACGEFLSPEQTAETIAQCETAVFTGAAVANGTIEHLLRLVPKEAAVAVVGPTAGFIPDPLFRRNVALVGTAMVTDIAAALDIIAEGGGAYPLFGRCVKKINILNRKRIEQLKPGSKTA	not soluble
IFPFKEPPMALEKHGTCLCGDTRLTVTVDNTHISACHCSMCRKWTGGPLLVVHCSKPPLIEGRAPSVYDSSDWAQRAFCGRCGTHLYYRLKANDFHAVPVGLLDGDQAWDFDLQIFVEEKPAWYCFANQTKELSGQE	not soluble
MIQQESRLKVADNSGAREVLVIKVLGGSGRRYANIGDVVVATVKDATPGGVVKKGQVVKAVVVRTKRGVRRPDGSYIRFDENACVIIRDDKSPRGTRIFGPVARELRDKDFMKIISLAPEVI	soluble
MGSDKIHHHHHHMLEATYHSLEDLAEAIGVALSAPITIEDRNHRLLAYSTHTADTDPARIATIIGRRVPESVIDQLWKDEVIQNLAAQDEPLIISARTGVGLNDRVAIAIKQDTEILGYIWSIARSTPFSETELSDFKKGALLAQRQLLAIDMQKKRQEEKTEQFFFELLHEDMPESEILKTFSKLHVAPPGISRLMVIRFSEAITPRLADRLRYLLTIQQTVRPLLYAYDETDFILWISTNDQDAHHERLQFDAFIQSFRQMLAERFNYTNFISASSEVFTGVQSIPERYEETGIVLRLKDAFPFELSTVTRYERLGLFQLLPIFSERLRRRTVRLEEIERLRSYDEKHAASLCETLEWFLHYDGNVKQVASHLHVHPNTILYRMRRIEEEAGIRMESLPERALLYLYLKADRYPL	not soluble
MKRLTERVIIMKGAGEMATGVACRLHRSGFRRILMLEAPSPLAVRRGVSFCEAIHNGRKSVEGIEAVRIENGSALADAWGKGEIPLLADPQGDAVRRMEPDILIDATIAKRNLGIAITDAPLVIALGPGFFAGRDCHLVIETNRGHNLGRLIACGEAEPNTGIPGNIGGYTRERVLRAPADGHFTTEKVIGDQVSKGDVVGIVGTNTVTASIDGILRGLIRPGTHVTTGLKIGDIDPRGDTAYCHTISEKARALGGSVLEAILTVYNQLEHHHHHH	not soluble
MNQIDLNVTCRYAGVFHVEKNGRYSISRTEAADLCQAFNSTLPTMDQMKLALSKGFETCRYGFIEGNVVIPRIHPNAICAANHTGVYILVTSNTSHYDTYCFNASAPPEEDCTSVTDLPNSFDGPVTITIVNRDGTRYSKKGEYRTHQEDIDAS	soluble
MMQSGYRAPISRKSVVNTTPATPARTDRRTVSMAQQLLMPKATAVWLVDNTALSFDQIATFCKLHPLEVKAIADGEAAQGIKGLDPIATGQLSRDEIARAEGNPSHKLKLSEPKVRVPESKRRGPRYTPVSKRQDRPNAILWLVRNHPELKDAQISRLVGTTKSTIEQIRDRTHWNSANLTPMDPVTLGLCSQIDLDLEVERASRGRPLPTAEELGNTLQPATATEGLDYNNYQREEEQQIDADAVFKKLSSLKSAPKDEDEDDQYLEHHHHHH	soluble
MYKKRQRGEREREIKVEFAMHISIKTLEGKRIKLEVEDSSNTIDLKIHGEPTRELVVDLSPTPDTGAIMMIFIKTLTGRTNTYEVKGSDTIRELKAKHEEKEGIPVEQQRLIFQGRVLEDSKAISDYNIKHESTLHITLHQCGC	soluble

Reference: the DeepSol protein solubility set
